Consider four molecules from publication PMC3753675.

Holding throughout (experiment): EMSA
(A gel shift assay detects complexes by their altered migration in electrophoresis.)

In one series the target is T1, GST-hHSF2 (human) (UniProt Q03933).
T1 sequence: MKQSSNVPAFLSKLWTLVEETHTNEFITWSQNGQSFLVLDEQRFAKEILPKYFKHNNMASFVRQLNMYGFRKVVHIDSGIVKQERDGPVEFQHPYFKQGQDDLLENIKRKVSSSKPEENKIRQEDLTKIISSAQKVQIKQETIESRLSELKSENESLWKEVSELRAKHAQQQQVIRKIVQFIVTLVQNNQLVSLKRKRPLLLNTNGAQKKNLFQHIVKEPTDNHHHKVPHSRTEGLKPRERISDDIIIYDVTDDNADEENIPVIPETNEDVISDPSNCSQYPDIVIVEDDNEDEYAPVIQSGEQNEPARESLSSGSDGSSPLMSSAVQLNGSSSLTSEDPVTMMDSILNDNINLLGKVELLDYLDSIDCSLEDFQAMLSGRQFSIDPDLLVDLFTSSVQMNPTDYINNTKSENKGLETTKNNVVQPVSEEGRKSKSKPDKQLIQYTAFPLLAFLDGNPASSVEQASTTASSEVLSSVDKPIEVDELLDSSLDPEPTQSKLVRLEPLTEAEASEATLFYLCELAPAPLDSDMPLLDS
The settings on record: binding buffer ([…], room temperature 2 h.

In the next series the target is T2, GST-hHSF1 (human) (UniProt Q00613).
T2 sequence: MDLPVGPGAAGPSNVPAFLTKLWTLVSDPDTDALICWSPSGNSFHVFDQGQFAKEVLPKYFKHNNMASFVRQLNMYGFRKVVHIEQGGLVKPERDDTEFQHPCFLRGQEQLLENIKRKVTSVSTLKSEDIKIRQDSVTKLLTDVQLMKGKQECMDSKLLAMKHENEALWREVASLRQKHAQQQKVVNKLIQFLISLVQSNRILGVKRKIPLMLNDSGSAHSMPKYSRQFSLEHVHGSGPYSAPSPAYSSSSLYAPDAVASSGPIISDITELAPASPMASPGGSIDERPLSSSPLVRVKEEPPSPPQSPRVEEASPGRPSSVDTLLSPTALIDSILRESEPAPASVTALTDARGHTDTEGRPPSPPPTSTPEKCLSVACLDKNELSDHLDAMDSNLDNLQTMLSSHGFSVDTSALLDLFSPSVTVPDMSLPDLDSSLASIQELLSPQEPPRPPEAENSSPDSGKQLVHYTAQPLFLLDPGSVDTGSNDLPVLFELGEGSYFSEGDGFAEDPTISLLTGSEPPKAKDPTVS
The conditions noted are these: binding buffer ([…], room temperature 2 h.

Another series deals with T3, dHSF (Drosophila melanogaster, UniProt P22813 1-691).
T3 sequence: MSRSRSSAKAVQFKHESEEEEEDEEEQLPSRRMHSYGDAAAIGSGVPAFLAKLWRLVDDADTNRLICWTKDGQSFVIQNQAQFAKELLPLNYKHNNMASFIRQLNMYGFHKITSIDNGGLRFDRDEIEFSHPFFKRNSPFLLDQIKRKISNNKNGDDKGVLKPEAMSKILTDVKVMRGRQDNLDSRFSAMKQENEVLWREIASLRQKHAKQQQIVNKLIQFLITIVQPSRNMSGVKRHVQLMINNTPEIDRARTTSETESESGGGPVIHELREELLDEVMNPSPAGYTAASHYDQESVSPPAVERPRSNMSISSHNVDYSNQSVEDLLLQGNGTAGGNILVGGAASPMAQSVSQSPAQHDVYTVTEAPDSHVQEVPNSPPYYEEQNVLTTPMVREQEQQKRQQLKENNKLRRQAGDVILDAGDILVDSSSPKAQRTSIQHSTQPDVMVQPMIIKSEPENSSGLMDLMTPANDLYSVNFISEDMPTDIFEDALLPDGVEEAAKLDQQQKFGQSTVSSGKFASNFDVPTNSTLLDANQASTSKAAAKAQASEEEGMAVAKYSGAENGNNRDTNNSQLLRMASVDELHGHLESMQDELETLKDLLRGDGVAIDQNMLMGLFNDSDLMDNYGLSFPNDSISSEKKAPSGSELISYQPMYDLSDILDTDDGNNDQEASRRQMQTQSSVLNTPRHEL

On to “GGGAAUGGAUCCACAUCUACGAAUUCAAUCAAGUCCCCAGACUCAGCAACACUGGACAGCGAUAUGCAGAUAACCAAGACCAAUUCACUCCAGUUCACUGCAGACUUGACGAAGCUU [hHSF2-R5-2]”, for which the Kd in the series with GST-hHSF2 (human) and in the series with GST-hHSF1 (human) was less than 20 nM in each case. On to “GGGAAUGGAUCCACAUCUACGAAUUCCACUCCAUAGUAUCUAGAAGCCCUGCCGAAAACGAGAGCGCUUACGCUUAUAAAUGAUCAACCUACCUCGUUCACUGCAGACUUGACGAAGCUU [hHSF1-R5-1]”, for which the equilibrium dissociation constant (Kd) in the series with GST-hHSF2 (human) and with GST-hHSF1 (human) was less than 20 nM in each case.

B1: hHSF2-R5-2 (structured_RNA)
RNA: GGGAAUGGAUCCACAUCUACGAAUUCAAUCAAGUCCCCAGACUCAGCAACACUGGACAGCGAUAUGCAGAUAACCAAGACCAAUUCACUCCAGUUCACUGCAGACUUGACGAAGCUU
As for B1, the Kd with dHSF was roughly 70 nM.

B2: hHSF1-R5-1 (structured_RNA)
RNA: GGGAAUGGAUCCACAUCUACGAAUUCCACUCCAUAGUAUCUAGAAGCCCUGCCGAAAACGAGAGCGCUUACGCUUAUAAAUGAUCAACCUACCUCGUUCACUGCAGACUUGACGAAGCUU
Molecule B2 had a dissociation constant Kd with dHSF of roughly 70 nM.

In general, Kd refers to the free concentration of one partner at which half of the binding sites on the other are occupied at equilibrium, for simple one-to-one binding. A lower Kd goes with higher affinity.
